± gives the uncertainty stated by the source.
Assay: self-splicing fitness, log relative to wild type (ln ratio); higher = more splicing; Tetrahymena group I intron in knt gene, E. coli kanamycin selection, DiMSum; sequences stand for … in CUCUCU…GGAGGGAAAAGUUAUCAGGCAUGCACCUGGUAGCUAGUCUUUAAACCAAUAGAUUGCAUCGGUUUAAAAGGCAAGACCGUCAAAUUGCGGGAAAGGGGUCAACAGCCGUUCAGUACCAAGUCUCAGGGGAAACUUUGAGAUGGCCUUGCAAAGGGUAUGGUAAUAAGCUGACGGACAUGGUCCUAACCACGCAGCCAAGUCCUAAGUCAACAGAUCUUCUGUUGAUAUGGAUGCAGUUCACAGACUAAAUGUCGGUCGGGGAAGAUGUAUUCUUCUCAUAAGAUAUAGUCGGACCUCUCCUUAAUGGGAGCUAGCGGAUGAAGUGAUGCAACACUGGAGCCGCUGGGAACUAAUUUGUAUGCGAAAGUAUAUUGAUUAGUUUUGGAGUACUCGUGGUCG
In short: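 DiMSum derived fitness as the error-weighted combination of fold changes across replicates, kanamycin versus no kanamycin, normalised to wild type. E. coli BL21(DE3) held the library, which randomised all eight P1ex-region intron nucleotides within the knt kanamycin-resistance gene on pET-22b(+). Six replicate transformations grew overnight at 37°C or 30°C on LB agar with or without 25 μg/mL kanamycin, also containing 100 μg/mL carbenicillin, 50 μM IPTG and 0.2% rhamnose, and pooled colonies were amplicon-sequenced on an Illumina HiSeq 2500.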

Row | Sequence | self-splicing fitness (ln) (30 °C) | self-splicing fitness (ln) (37 °C)
1 | AGUUAGCAAUAUUACGAUCU | -0.0546 ± 0.1 | 0.11 ± 0.13
2 | AGUUAGCAAUAUUACGCAUA | -1.15 ± 0.19 | -0.764 ± 0.29
3 | AGUUAGCAAUAUUACGCGAC | -2.88 ± 0.45 | -0.848 ± 0.26
4 | AGUUAGCAAUAUUACGCGCG | -0.159 ± 0.12 | -0.151 ± 0.15
5 | AGUUAGCAAUAUUACGCUCU | -1.37 ± 0.45 | –
6 | AGUUAGCAAUAUUACGCUGA | -3.13 ± 0.3 | -2.05 ± 0.27
7 | AGUUAGCAAUAUUACGGUUU | -0.98 ± 0.071 | -0.317 ± 0.1
8 | AGUUAGCAAUAUUACGUCUU | -0.214 ± 0.096 | 0.541 ± 0.13
9 | AGUUAGCAAUAUUACGUGCC | -0.977 ± 0.12 | -0.145 ± 0.16
10 | AGUUAGCAAUAUUACGUUCU | -0.403 ± 0.1 | -0.302 ± 0.11
11 | AGUUAGCAAUAUUACGUUGA | -2.03 ± 0.31 | -2.02 ± 0.39
12 | AUAAAGCAAUAUUACGACGC | 0.18 ± 0.093 | 0.349 ± 0.14
13 | AUAAAGCAAUAUUACGACUC | -0.219 ± 0.075 | 0.324 ± 0.088
14 | AUAAAGCAAUAUUACGAUAC | -1.39 ± 0.12 | -0.441 ± 0.14
15 | AUAAAGCAAUAUUACGCAGC | -3.55 ± 0.4 | -1.04 ± 0.28
16 | AUAAAGCAAUAUUACGCCGA | -1.06 ± 0.077 | 0.123 ± 0.11
17 | AUAAAGCAAUAUUACGCCGC | -2.8 ± 0.18 | -2.05 ± 0.27
18 | AUAAAGCAAUAUUACGCCGG | -0.516 ± 0.13 | -0.807 ± 0.17
19 | AUAAAGCAAUAUUACGCGAG | -1.08 ± 0.075 | 0.0257 ± 0.095
20 | AUAAAGCAAUAUUACGCGCA | 0.0901 ± 0.058 | -0.398 ± 0.075
21 | AUAAAGCAAUAUUACGCGGA | -1.65 ± 0.083 | 0.155 ± 0.089
22 | AUAAAGCAAUAUUACGCGUG | -1.11 ± 0.067 | -0.15 ± 0.074
23 | AUAAAGCAAUAUUACGGCAC | -0.531 ± 0.073 | -0.1 ± 0.11
24 | AUAAAGCAAUAUUACGGCCU | 0.372 ± 0.11 | 0.382 ± 0.14
25 | AUAAAGCAAUAUUACGGCGC | 0.0765 ± 0.13 | 0.21 ± 0.14

Row | Sequence | self-splicing fitness (ln) (30 °C) | self-splicing fitness (ln) (37 °C)
26 | AUAAAGCAAUAUUACGGCGG | -0.248 ± 0.062 | -0.197 ± 0.077
27 | AUAAAGCAAUAUUACGGGCC | -2.21 ± 0.17 | -0.0428 ± 0.17
28 | AUAAAGCAAUAUUACGGGGA | -1.96 ± 0.14 | -1.4 ± 0.18
29 | AUAAAGCAAUAUUACGGUGG | -2.61 ± 0.1 | -1.4 ± 0.12
30 | AUAAAGCAAUAUUACGUAAU | -0.762 ± 0.081 | -0.869 ± 0.094
31 | AUAAAGCAAUAUUACGUCAG | -1.6 ± 0.12 | -0.647 ± 0.12
32 | AUAAAGCAAUAUUACGUCGG | -1.28 ± 0.075 | -0.774 ± 0.089
33 | AUAAAGCAAUAUUACGUGAU | -1.64 ± 0.074 | -0.793 ± 0.11
34 | AUAAAGCAAUAUUACGUGGC | -3.27 ± 0.13 | -2.69 ± 0.16
35 | AUAAAGCAAUAUUACGUGUG | -1.55 ± 0.061 | -0.947 ± 0.073
36 | AUAAAGCAAUAUUACGUUCC | -0.979 ± 0.13 | -0.885 ± 0.18
37 | AUAAAGCAAUAUUACGUUUA | -0.935 ± 0.065 | -0.201 ± 0.08
38 | AUACAGCAAUAUUACGAGAG | -3.39 ± 0.14 | -2.1 ± 0.088
39 | AUACAGCAAUAUUACGAUAC | -2.01 ± 0.075 | -1.08 ± 0.088
40 | AUACAGCAAUAUUACGAUCU | -0.478 ± 0.077 | -0.0165 ± 0.087
41 | AUACAGCAAUAUUACGAUGA | -1.42 ± 0.11 | -0.0115 ± 0.1
42 | AUACAGCAAUAUUACGCGCG | -0.869 ± 0.1 | -1.07 ± 0.093
43 | AUACAGCAAUAUUACGCUUG | -1.35 ± 0.08 | -0.94 ± 0.1
44 | AUACAGCAAUAUUACGGAAA | -3.24 ± 0.2 | -2.16 ± 0.17
45 | AUACAGCAAUAUUACGGCAU | -0.388 ± 0.083 | 0.525 ± 0.099
46 | AUACAGCAAUAUUACGGCGC | -0.801 ± 0.1 | 0.447 ± 0.15
47 | AUACAGCAAUAUUACGGCGG | -1.19 ± 0.095 | -0.617 ± 0.12
48 | AUACAGCAAUAUUACGGGCC | -2.7 ± 0.17 | -2.82 ± 0.44
49 | AUACAGCAAUAUUACGGGUC | -3.7 ± 0.21 | -2.48 ± 0.19
50 | AUACAGCAAUAUUACGUUUU | -2.19 ± 0.12 | -2.09 ± 0.15

Row | Sequence | self-splicing fitness (ln) (30 °C) | self-splicing fitness (ln) (37 °C)
51 | AUAGAGCAAUAUUACGAAUU | -0.889 ± 0.15 | -0.429 ± 0.23
52 | AUAGAGCAAUAUUACGACCG | -2.9 ± 0.27 | -1.57 ± 0.43
53 | AUAGAGCAAUAUUACGACGU | 0.0144 ± 0.077 | 0.556 ± 0.099
54 | AUAGAGCAAUAUUACGAGGG | -3.05 ± 0.25 | -1.56 ± 0.26
55 | AUAGAGCAAUAUUACGAUCA | -0.545 ± 0.098 | -0.894 ± 0.15
56 | AUAGAGCAAUAUUACGAUUC | -2.37 ± 0.28 | -1.08 ± 0.33
57 | AUAGAGCAAUAUUACGAUUU | -0.251 ± 0.081 | 0.0148 ± 0.1
58 | AUAGAGCAAUAUUACGCAGA | -2.57 ± 0.21 | -1.84 ± 0.16
59 | AUAGAGCAAUAUUACGCAGC | -2.33 ± 0.45 | –
60 | AUAGAGCAAUAUUACGCAUC | -3.91 ± 0.31 | -2.11 ± 0.25
61 | AUAGAGCAAUAUUACGCAUG | -1.85 ± 0.16 | -1.42 ± 0.23
62 | AUAGAGCAAUAUUACGCCGU | -0.866 ± 0.21 | 0.511 ± 0.26
63 | AUAGAGCAAUAUUACGCGCG | -1.47 ± 0.2 | -0.725 ± 0.23
64 | AUAGAGCAAUAUUACGCGCU | -2.64 ± 0.29 | -0.717 ± 0.24
65 | AUAGAGCAAUAUUACGCGGA | -1.35 ± 0.092 | -1.48 ± 0.11
66 | AUAGAGCAAUAUUACGCGUC | -1.8 ± 0.39 | -1.82 ± 0.26
67 | AUAGAGCAAUAUUACGCUAA | -1.33 ± 0.13 | -0.315 ± 0.18
68 | AUAGAGCAAUAUUACGCUGA | -1.26 ± 0.15 | -1.03 ± 0.17
69 | AUAGAGCAAUAUUACGGAAC | -3.66 ± 0.27 | -1.92 ± 0.24
70 | AUAGAGCAAUAUUACGGCAA | -1.97 ± 0.21 | -0.382 ± 0.17
71 | AUAGAGCAAUAUUACGUAGA | -3.41 ± 0.25 | -2.52 ± 0.24
72 | AUAGAGCAAUAUUACGUAGG | -2.32 ± 0.18 | -2.65 ± 0.38
73 | AUAGAGCAAUAUUACGUAUC | -2.94 ± 0.37 | -2.16 ± 0.43
74 | AUAGAGCAAUAUUACGUGGG | -3.77 ± 0.31 | -1.79 ± 0.32
75 | AUAGAGCAAUAUUACGUUAA | -2.32 ± 0.19 | -1.76 ± 0.23

Row | Sequence | self-splicing fitness (ln) (30 °C) | self-splicing fitness (ln) (37 °C)
76 | AUAGAGCAAUAUUACGUUCU | -1.35 ± 0.15 | 0.267 ± 0.17
77 | AUAUAGCAAUAUUACGAACG | -1.56 ± 0.18 | -0.154 ± 0.2
78 | AUAUAGCAAUAUUACGAAGC | -2.96 ± 0.31 | –
79 | AUAUAGCAAUAUUACGAAGU | -3.37 ± 0.3 | -1.63 ± 0.36
80 | AUAUAGCAAUAUUACGAAUA | -1.36 ± 0.32 | –
81 | AUAUAGCAAUAUUACGACGG | -2.5 ± 0.17 | -2.5 ± 0.22
82 | AUAUAGCAAUAUUACGAUGU | 0.361 ± 0.18 | -0.83 ± 0.23
83 | AUAUAGCAAUAUUACGCGAA | – | -1.32 ± 0.23
84 | AUAUAGCAAUAUUACGCGAG | -2.35 ± 0.13 | -1.09 ± 0.13
85 | AUAUAGCAAUAUUACGCGAU | -2.69 ± 0.33 | -1.57 ± 0.49
86 | AUAUAGCAAUAUUACGCGGG | -2.72 ± 0.38 | -1.33 ± 0.22
87 | AUAUAGCAAUAUUACGCGGU | -2.75 ± 0.18 | -2.28 ± 0.19
88 | AUAUAGCAAUAUUACGCUGU | -2.9 ± 0.22 | -2.32 ± 0.21
89 | AUAUAGCAAUAUUACGGAAU | -1.92 ± 0.21 | 0.227 ± 0.23
90 | AUAUAGCAAUAUUACGGACA | -1.48 ± 0.22 | -1.2 ± 0.23
91 | AUAUAGCAAUAUUACGGAGG | -3.24 ± 0.45 | –
92 | AUAUAGCAAUAUUACGGCCG | -1.15 ± 0.2 | -0.566 ± 0.25
93 | AUAUAGCAAUAUUACGGGAC | -2.51 ± 0.48 | -1.82 ± 0.48
94 | AUAUAGCAAUAUUACGGGAG | -4.22 ± 0.39 | -1.59 ± 0.24
95 | AUAUAGCAAUAUUACGGGCG | -1.47 ± 0.17 | -0.59 ± 0.15
96 | AUAUAGCAAUAUUACGGUCA | -1.16 ± 0.23 | -0.947 ± 0.19
97 | AUAUAGCAAUAUUACGGUCC | -2.8 ± 0.25 | -1.44 ± 0.33
